Reference: the supplement of paper PMC9170038

Test system: K4 kissing-loop RNA reporter
Assay: apparent KD of K4 kissing-loop reporter; higher = weaker reporter binding
Conditions: Eterna round: R107
Procedure: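 RNA-MaP round R107: designed RNA switches with theophylline, tryptophan, arginine or FMN aptamers are transcribed on-chip within common flanks. They are titrated with a labelled K4 kissing-loop RNA reporter in RNA-MaP buffer (100 mM Tris pH 7.5, 80 mM KCl, 4 mM MgCl2), without ligand or with the indicated ligand. Median apparent KD per design.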

[1] = input ligand: theophylline 20 uM
[2] = input ligand: tryptophan 2.4 mM
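Further: bound reporter read as fluorescence of individual clusters on recovered sequencing chips by microscopy, with normalized cluster intensities fitted with a binding model.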

| Sequence | apparent KD of K4 kissing-loop reporter (input ligand: FMN 200 uM) [nM] | apparent KD of K4 kissing-loop reporter (input ligand: arginine 13.2 mM) [nM] | apparent KD of K4 kissing-loop reporter (input ligand: none) [nM] | apparent KD of K4 kissing-loop reporter [1] [nM] | apparent KD of K4 kissing-loop reporter [2] [nM] |
| --- | --- | --- | --- | --- | --- |
| UGACAUUGCUCAGAUACCAGACUUGAGGAUCACCCAAGUGCCAAAACGUACUAAAUAAAAGUCCCUUGGCAGCUGAGCAAUGUCU [TheoBX 13] | 49.2 | 45.9 | 40.6 | 88 | 54.1 |
| UGACUGGACUGAAGGAGCGAGCGAGACAAAGUCUCGAAAAUUCAGUGAUGUUGAUAUAUAACUCAGGUAGGUCGCAGUCUAGUCU [ArgBS 5 #SwitchBubble #StaticStem] | 447 | 433 | 477 | 464 | 431 |
| UGACUGGACUGAAGGAGCGCGCGAGACAAAGUCUCGAACUCUUAGUGAUGUUAAGAAAUAACGCAGGUAGGUCGCAGUCUAGUCU | 138 | 122 | 147 | 133 | 150 |
| UGACUGGACUGAAGGAGCGCUAAACUCCUAGUGAUGUUAGGGAAACGAGACAAAGUCUCGAGGCAGGUAGGUCGCAGUCUAGUCU [FiskerMod 1 - Jieux - Same State - Arginine B] | 254 | 199 | 261 | 265 | 244 |
| UGACUGGACUGAAGGAGCGCUGAACUCCUAGUGAUGUUAGGAAAACGAGACAAAGUCUCGCGGCAGGUAGGUCGCAGUCUAGUCU | 130 | 85.9 | 108 | 111 | 99.2 |
| UGACUGGACUGAAGGAGCGCUUAACUCCUAGUGAUGUUAGGAAAACGAGACAAAGUCUCGAAGCAGGUAGGUCGCAGUCUAGUCU | 152 | 123 | 151 | 158 | 132 |
| UGACUGGACUGAAGGAGCGGGCGAGACAAAGUCUCGAACUCUUAGUGAUGUUAGGAAAUAACCCAGGUAGGUCGCAGUCUAGUCU | 243 | 132 | 178 | 216 | 188 |
| UGACUGGACUGAAGGAGCGUUCAGGUAGGUCGCAUAGGAGUGAUGUUCCAAUGAAGGAGCGAGCAGGUAGGUCGCAGUCUAGUCU [ArgBS 13 #DoubleAptamer #SwitchBubble] | 157 | 219 | 243 | 205 | 158 |
| UGACUGGAUGGAAGGAGCGCUAAACUCCUAGUGAUGUUAGGGAUACGAGGCAAAGCCUCGAAGCAGGUAGGUCGCCAUCUAGUCU [FiskerMod 21 - Jieux - Same State - Arginine B] | 171 | 123 | 146 | 171 | 159 |
| UGACUGGAUGGAAGGAGCGCUAAACUCCUAGUGAUGUUAGGGAUAUGAGGCAAAGCCUUGAAGCAGGUAGGUCGCCAUCUAGUCU [FiskerMod 26 - Jieux - Same State - Arginine B] | 141 | 126 | 146 | 146 | 142 |
| UGAUACCAGACGGCCGCCACUACACCAGUCAAAGACUGGAUGUGAUGUCUGACCAGUGAUGUUGGUAGGACCGGGUCUGGUAUCU [TrypBX 6 #Palindromic #SwitchBubble #StaticStem] | 246 | 303 | 428 | 450 | 305 |
| UGAUACCAGACGGCCGCCACUACACCAGUCAAAGACUGGAUGUGAUGUUCGACCAGUGAUGUUGGUAGGACCGGGUCUGGUAUCU [TrypBX 7 #Palindromic #SwitchBubble #StaticStem] | 133 | 121 | 127 | 109 | 147 |
| UGAUACCAGACGGCCGCCACUCCCGCAGGUCAAAGACCUGCGAAGAAGGUUUUUUAGUGAUGUUGGAGGACCGGGUCUGGUAUCU [FiskerMod 20 - Jieux - Exclusion - Tryptophan B] | 311 | 92.6 | 257 | 140 | 689 |
| UGAUACCAGACGGCCGCCACUGCGCCAGUCAAUGACUGAGCGCGGUGGCGCUCAGUGAUGUUGUGCAGGACCGGGUCUGGUAUCU [Mod of Eli's TrypBX 8 v6] | 476 | 383 | 410 | 364 | 398 |
| UGAUACCAGACUGAUACCAGCCAGUGAUGUUGGCAAUAACCAAGGCGAGUCAAAGACUCGGGCCCUUGGCAGCAGUCUGGUAUCU [TheoBX 6 #SwitchBubble #StaticStem] | 134 | 150 | 133 | 143 | 136 |
| UGAUACCAGGCGGCCGCCACUCCUGCAGGUCAAAGACCUGUGAAGCUGGUUCUCCAGUGAUGUUGGAGGACCGGGCCUGGUAUCU [FiskerMod 27 - Jieux - Exclusion - Tryptophan B] | 202 | 176 | 185 | 179 | 356 |
| UGAUAGGACAGAAGGAGCGGAGCUGGUCAAAGACCAGCAAUACGUUGAAAAGGAGUGAUGUUCCAGGUAGGUCGCUGUCCUAUCU [ArgBX 27 #SwitchBubble #StaticStem] | 93.5 | 103 | 106 | 133 | 85.2 |
| UGAUAGGACAGAAGGAGCGGGAGUGAUGUUCCCAAAAGGAUAAGGUGUCAAAAGACACCCUCCCAGGUAGGUCGCUGUCCUAUCU | 577 | 311 | 663 | 532 | 544 |
| UGAUCUGCAGUGAUGUUGCAGUAGCUGUCAGAGGAUAUCAGACUCAUGAGAAGGCUGACAAUGUCUAACAGCACAAUGCUGUUCA [FMN A SS t6] | 156 | 156 | 166 | 197 | 146 |
| UGAUUUAACUGAAGGAGCGGCAAUUGAUAAGUAAAUAUAGUGAUGUUAUAUAAGAGAGAGAGCCAGGUAGGUCGCAGAGGGAGGA [ExArgB.I] | 205 | 138 | 167 | 170 | 140 |
| UGCAGUGAUGUUGCGAGUGGCAGAUACGAAGGAGCGUGGUGAGACACAGGUAGGUCGCGUAUUGAAAUUGCUGUCACUAAAAUGC [#7] | 448 | 469 | 505 | 483 | 362 |

| Sequence | apparent KD of K4 kissing-loop reporter (input ligand: FMN 200 uM) [nM] | apparent KD of K4 kissing-loop reporter (input ligand: arginine 13.2 mM) [nM] | apparent KD of K4 kissing-loop reporter (input ligand: none) [nM] | apparent KD of K4 kissing-loop reporter [1] [nM] | apparent KD of K4 kissing-loop reporter [2] [nM] |
| --- | --- | --- | --- | --- | --- |
| UGCCGCAAGGCGAGCGCUCCCACUCCGGAAGGAGCGCCCGGAAGGGCAGGUAGGUCGCCGGAGUGAUGUUCCGGUGGAGGGCUCG [#2 Exclusion - Arginine A Attempt #26 (Inspired by Omei)] | 462 | 165 | 358 | 337 | 297 |
| UGCUUUAUCAGAAGGAGCGCGUAAGUUAUACUAAUAAUCAGUGAUGUUGAUAUAUGAUCUUUGCAGGUAGGUCGCUGAUAUAGCU [KL-XARG-B4] | 452 | 419 | 532 | 467 | 472 |
| UGGAGUUGACGAAAAGUCAACUCCUGAGAAGGAGCGCACGAAAGUGCAGGUAGGUCGCUCUACCAGUGAUGUUGGUACUUAAUAA [#OpenEnded 6] | 92.1 | 170 | 117 | 162 | 84.5 |
| UGGAGUUGACGAAAAGUCAACUCCUGAGAAGGAGCGGACGAAAGUCCAGGUAGGUCGCUCACUACCAGUGAUGUUGGUAAUUCAA [#OpenEnded 3] | 269 | 284 | 277 | 272 | 234 |
| UGGAGUUGACGAAAAGUCAACUCCUGAGAUACCAGUGACGAAAGUCACCCUUGGCAGCUCACUGCCAGUGAUGUUGGUUCAUAAG [#03 K4 Theophylline A Same State] | 223 | 197 | 152 | 245 | 142 |
| UGGAGUUGACGAAAAGUCAACUCCUGGGAAGGAGCGGACGAAAGUCCAGGUAGGUCGCCCACUACCAGUGAUGUUGGUACCUAAA | 274 | 320 | 257 | 307 | 206 |
| UGGAUAUCGUUUAGUCUGGUGAGGUCAGAUACCAGACUAGCGAUAGUCCCUUGGCAGCUGAUUAUGAUUGAGUGAUGUUCAAUCG [Theo A Ex t9a] | 179 | 154 | 175 | 180 | 180 |
| UGGCGACUGCCAGUGAUGUUGGCCGUCGUACGAGGACCGGUACGGCCGCCACUCGUCCUGGUUUAGGCUCCGCCUUCACAUCAGG [Beterire] | 401 | 326 | 393 | 784 | 309 |
| UGGGCCGCCUGAGGAUAUAGAGACGAGUGAUGUUCGUGGAUCAGAGCCAGUGAUGUUGGGUUAUUUCUAGAAGGCGGGCGAACUU [Exclusion FMN B GF10] | 116 | 112 | 120 | 118 | 120 |
| UGGGUGUAGUGAUGUUAUAUAGAGAGUGAUACCAGUUUAGAGAAGAACCCUUGGCAGCAUAGAAGAGUAUCAUUGGAGAAGAAUG [ExTheophyl.As] | 459 | 348 | 422 | 378 | 339 |
| UGGUUUAACUGAAGGAGCGGCAAUUGAUAAGUAGAUAUAGUGAUGUUAUAUAAGAUAGAGAGCCAGGUAGGUCGCAGAGGUGUUU [ExArgB.Q] | 208 | 204 | 232 | 253 | 189 |
| UGUACCGAGUCAGGAUAUGGCGUCGAAAGACGAAUCUUAGUGAUGUUAGGGAUCUGCGAAAGCAGUCCAGAAGGGACUUGGUACU [FmnBS 26 U37] | 568 | 583 | 768 | 605 | 902 |
| UGUACCGAGUCAGGAUAUGGCGUCGAAAGACGAAUGCUAGUGAUGUUAGGGAUCUGCGAAAGCAGUCCAGAAGGGACUUGGUACU [FmnBS 26 G36] | 381 | 471 | 653 | 634 | 649 |
| UGUCAUGGAAACAUGAACGUUAAAAUAAAUCGAGGACCGGUACGGCCGCCACUCGUAUAGCGGUCAGUGAUGUUGACUGUAGUAA [KL-SSTryp-A form2 sub8] | 99.2 | 116 | 108 | 116 | 96.8 |
| UGUCAUUGGUCGGCCGCCACUAGGACCGGGUAUAGCCUAGUGAUGUUAGUAAGUACGGCCGCCACUAGGACCGGGACCGAUGACU [KL-SSTryp-B21 #DoubleAptamer] | 742 | 57 | 591 | 674 | 131 |
| UGUCAUUGGUCGGCCGCCACUGAAAUAAAAGAGUGAUGUUCUUAAAAGACGGACAAAGUCUGUCAUAGGACCGGGACCGAUGACU [TrypBS 24 #SwitchBubble #StaticStem] | 662 | 558 | 473 | 369 | 380 |
| UGUCAUUGGUCGGCCGCCACUUCAAGGUCAAAGACCAAAGAGUGAUGUUCUAAGACGAAAGUCAGAAGGACCGGGACCGAUGACU [TrypBS 10 #SwitchBubble #K4Middle] | 168 | 67.7 | 128 | 223 | 1220 |
| UGUCAUUGGUCGGCCGCCACUUCAUGUAGAGUGAUGUUUUGUAGGACGGAUCGAAAGAUCUGUCGAAGGACCGGGACCGAUGACU [FiskerMod 15 - Jieux - Same State - Tryptophan B] | 233 | 84.7 | 197 | 235 | 1040 |
| UGUCAUUGGUCGGCCGCCACUUCGUGUAGAGUGAUGUUUUGUAGGACGGAUCGAAAGAUCUGUCGGAGGACCGGGACCGAUGACU [FiskerMod 17 - Jieux - Same State - Tryptophan B] | 228 | 139 | 408 | 481 | 889 |
| UGUCAUUGGUCUGAUACCAGUCCCUUGGCAGCCUAAAGGAGUGAUGUUCCAAGGAUACCAGACCCUUGGCAGCAGACCGAUGACU [TheoBS 28 #DoubleAptamer #SwitchBubble] | 351 | 312 | 360 | 260 | 354 |
| UGUCAUUGGUCUGAUACCAGUUAGCGCGAUAAGCGCAAAACUGGAGUGAUGUUCCCAAAUAACCCUUGGCAGCAGACCGAUGACU [MAT - Same State Theophlline B - Mod of Eli - D13] | 337 | 155 | 235 | 189 | 176 |
